# Molecular target: recombinant human AGO2 (rhAGO2) (Homo sapiens, UniProt Q9UKV8 1-859)
# Assay: EMSA; 25 C; EMSA: 10 mM HEPES-KOH pH 7.4, 50 mM KCl, 1 mM DTT, 3% Ficoll-400, 0.1 mg/ml BSA, 10 nM RNA, 0-200 nM hAGO2, 30 min at 25 or 37 C, 6% native gel at 4 C; RISC assembly in HEK293T lysate at 0.75-3.75 mM Mg2+, 25 or 37 C
# Conditions: protein: recombinant; tags: N-terminal FLAG and His; label: 32P; single strand
# recombinant human AGO2 (rhAGO2), sequence (Q9UKV8 whole entry): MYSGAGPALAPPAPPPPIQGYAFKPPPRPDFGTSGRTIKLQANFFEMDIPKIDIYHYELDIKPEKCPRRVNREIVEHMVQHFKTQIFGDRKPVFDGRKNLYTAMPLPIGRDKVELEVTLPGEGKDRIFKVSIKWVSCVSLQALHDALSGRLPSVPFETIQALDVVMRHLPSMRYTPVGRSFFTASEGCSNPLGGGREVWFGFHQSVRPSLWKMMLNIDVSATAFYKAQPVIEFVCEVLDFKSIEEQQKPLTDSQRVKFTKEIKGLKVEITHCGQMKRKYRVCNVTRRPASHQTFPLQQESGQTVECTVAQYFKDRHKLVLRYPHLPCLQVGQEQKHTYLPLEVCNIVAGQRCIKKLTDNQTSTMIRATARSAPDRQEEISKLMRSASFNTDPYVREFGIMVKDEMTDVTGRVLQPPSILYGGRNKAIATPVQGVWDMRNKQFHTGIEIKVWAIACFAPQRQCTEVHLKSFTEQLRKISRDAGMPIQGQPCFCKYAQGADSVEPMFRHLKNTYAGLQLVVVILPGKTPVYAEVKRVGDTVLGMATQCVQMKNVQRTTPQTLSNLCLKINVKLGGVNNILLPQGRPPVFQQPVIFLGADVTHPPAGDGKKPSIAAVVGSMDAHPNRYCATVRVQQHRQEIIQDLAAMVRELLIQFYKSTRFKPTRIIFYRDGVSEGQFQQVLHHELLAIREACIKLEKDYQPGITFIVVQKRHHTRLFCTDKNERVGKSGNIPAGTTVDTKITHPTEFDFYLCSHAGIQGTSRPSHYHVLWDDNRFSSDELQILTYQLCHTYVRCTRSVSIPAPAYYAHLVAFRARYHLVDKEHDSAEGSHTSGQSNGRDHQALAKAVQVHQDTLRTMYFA
binder,measurement,value
UGGAAUGUAAAGAAGUAUGUA (ssRNA) [miR-1 guide ssRNA],Kd,~44.4 nM

# From PMC4627090, “Slicer-independent mechanism drives small-RNA strand separation during human RISC assembly”
